The target of this data set is T1, OsMYB80 (rice, UniProt Q7XQN1 1-372).
T1 sequence: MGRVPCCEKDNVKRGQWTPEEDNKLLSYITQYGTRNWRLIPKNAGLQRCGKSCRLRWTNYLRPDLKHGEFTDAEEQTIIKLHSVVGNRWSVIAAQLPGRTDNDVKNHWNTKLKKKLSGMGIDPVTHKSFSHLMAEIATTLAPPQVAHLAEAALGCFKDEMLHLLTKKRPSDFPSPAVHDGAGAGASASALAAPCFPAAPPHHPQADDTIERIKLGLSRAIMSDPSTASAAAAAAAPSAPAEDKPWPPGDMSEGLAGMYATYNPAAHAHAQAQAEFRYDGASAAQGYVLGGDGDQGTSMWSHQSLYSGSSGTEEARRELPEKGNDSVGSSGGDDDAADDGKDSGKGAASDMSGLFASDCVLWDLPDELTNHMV
The data set can be described thus: EMSA.

B1: LOC_Os08g38810 promoter probe (dsDNA)
DNA 1: CCTGGTCAGTCCTGTTGCACGGCTATATG
DNA 2: CATATAGCCGTGCAACAGGACTGACCAGG
B1: the binding result was “binds”.

B2: LOC_Os08g20200 promoter probe (dsDNA)
DNA 1: TAAGCCAGCTACAACTGACCAACTC
DNA 2: GAGTTGGTCAGTTGTAGCTGGCTTA
As for B2, the binding result was “binds”.

B3: LOC_Os09g36730 promoter probe (dsDNA)
DNA 1: ACCTCACTTTACACCTACCTTGAAGGTT
DNA 2: AACCTTCAAGGTAGGTGTAAAGTGAGGT
Consider B3, for which the binding result is reported as “binds”.

B4: LOC_Os06g11135 promoter probe (dsDNA)
DNA 1: TCTACCCTCACCAACCACGCTCCCA
DNA 2: TGGGAGCGTGGTTGGTGAGGGTAGA
Regarding B4, the binding result is “binds”.

B5: OsMYB80 promoter OsMYB80-1 probe (dsDNA)
DNA 1: TGAACCTAAGGCTGTAAATTTGTTCGGACAAAGGATCATT
DNA 2: AATGATCCTTTGTCCGAACAAATTTACAGCCTTAGGTTCA
Regarding B5, the binding result was “binds”.

B6: LOC_Os01g27170 promoter probe (dsDNA)
DNA 1: CCATCAAAATATATTGACTGTTGGATTTAATG
DNA 2: CATTAAATCCAACAGTCAATATATTTTGATGG
Consider B6, for which the binding result is on record as “binds”.

B7: OsMYB80 promoter OsMYB80-2 probe (dsDNA)
DNA 1: ACTCATAGCCTGCTATGTTCACAAGGTTTTATATTACTGA
DNA 2: TCAGTAATATAAAACCTTGTGAACATAGCAGGCTATGAGT
Consider B7, for which the binding result is “binds”.

B8: LOC_Os04g51990 promoter probe (dsDNA)
DNA 1: CTGCAGGAAATGGAAAACCATCTTATAGAAG
DNA 2: CTTCTATAAGATGGTTTTCCATTTCCTGCAG
Take B8: the binding result is reported as “binds”.

B9: LOC_Os07g40830 promoter probe (dsDNA)
DNA 1: CACGCATTCAGGAAACCAGAAGGATC
DNA 2: GATCCTTCTGGTTTCCTGAATGCGTG
On to B9, for which the binding result is reported as “binds”.

B10: LOC_Os03g35920 promoter probe (dsDNA)
DNA 1: GATCTGCATTTGTTAGTTCACCAGCAC
DNA 2: GTGCTGGTGAACTAACAAATGCAGATC
For the molecule B10, the binding result is recorded as “binds”.

B11: LOC_Os01g50750 promoter probe (dsDNA)
DNA 1: CACCTAAACAAAACCAAACACAAGC
DNA 2: GCTTGTGTTTGGTTTTGTTTAGGTG
As to B11, the binding result is “binds”.

B12: LOC_Os01g04080 promoter probe (dsDNA)
DNA 1: CCAAATAAACGAGAAAACGGCAAAGGCATATGTCATTCAC
DNA 2: GTGAATGACATATGCCTTTGCCGTTTTCTCGTTTATTTGG
For B12, the binding result was “binds”.

For the origin of these results see article PMC7217667.
